One molecule from patent US20110262366A1 (published 2011) can be followed below.

Starred links: 1 amine or outer side, 2 acyl side, 3 side chain; linkers in the order of their positions; H or OH if unused. No end group written: not given here. NH(CH2)3(OCH2CH2)2O(CH2)3NH = C(CN[*:1])COCCOCCOCCCN[*:2]; Oregon Green = Oregon Green fluorescent reporter dye

For the experiment, the target named is T1, NP-1/Fc (Neuropilin-1/Fc, R&D Systems).
T1 construct: Bought reagent; also called Npn-1
Kind of experiment: competition with 250 pM ^125I-VEGF165 on NP-1/Fc-coated plates, 4° C., 2 h. On the procedure: The next day all wells, even control wells lacking NP-1/Fc, were blocked 2 hrs with blocking buffer (1% BSA in D-PBS with 0.05% v/v Tween-20) then washed 4× with PBST (D-PBS/0.05% v/v Tween-20) before starting the assay. All points were derived from triplicate wells, and for each set of replicates in NP-1/Fc-coated wells, a companion set in the absence of the receptor was included. […] After addition of the appropriate solutions, microtiter plates were incubated at 4° C. for 2 hours. Following the incubation, plates were hand-washed 5 times with D-PBS containing 0.05% Tween-20 and 0.1% BSA. […] VEGF₁₆₅ (Cat. No. 100-20) was obtained from Peprotech.

In general, IC50 refers to the point on the concentration scale where inhibition reaches its midpoint. A lower IC50 goes with greater potency in that assay.

T1 sequence (Q9QWJ9 22-855): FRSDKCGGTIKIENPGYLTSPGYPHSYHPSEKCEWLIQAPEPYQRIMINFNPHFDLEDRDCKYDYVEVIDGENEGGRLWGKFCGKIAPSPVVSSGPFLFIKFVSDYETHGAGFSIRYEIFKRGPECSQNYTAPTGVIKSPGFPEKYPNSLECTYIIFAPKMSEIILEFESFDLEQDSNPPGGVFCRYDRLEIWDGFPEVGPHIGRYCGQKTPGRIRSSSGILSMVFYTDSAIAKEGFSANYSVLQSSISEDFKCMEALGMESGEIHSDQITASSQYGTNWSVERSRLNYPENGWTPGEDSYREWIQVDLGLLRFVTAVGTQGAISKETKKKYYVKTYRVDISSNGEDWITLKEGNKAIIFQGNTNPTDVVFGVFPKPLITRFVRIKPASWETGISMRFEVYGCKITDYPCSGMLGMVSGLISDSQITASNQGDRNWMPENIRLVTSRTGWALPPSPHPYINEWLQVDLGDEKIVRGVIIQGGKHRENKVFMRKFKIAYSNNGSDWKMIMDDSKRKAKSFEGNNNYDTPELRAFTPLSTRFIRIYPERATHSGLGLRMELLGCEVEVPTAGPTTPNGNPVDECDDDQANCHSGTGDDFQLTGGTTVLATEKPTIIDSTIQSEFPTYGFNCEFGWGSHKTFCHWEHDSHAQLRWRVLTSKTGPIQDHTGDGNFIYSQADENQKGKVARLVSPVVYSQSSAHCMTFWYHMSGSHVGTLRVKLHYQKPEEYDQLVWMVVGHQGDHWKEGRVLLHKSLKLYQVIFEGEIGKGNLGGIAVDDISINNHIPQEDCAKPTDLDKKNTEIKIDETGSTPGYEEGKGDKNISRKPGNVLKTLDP

B1: Tetramer BRU-346: TKPPR-K(RPPKT)-K[K(RPPKT)TKPPR]-G-Z-OG (peptide)
chain: TKPPRKRPPKTKKRPPKTTKPPRG-{NH(CH2)3(OCH2CH2)2O(CH2)3NH-Oregon Green}
modifications: also: branched on lysine core: TKPPR units linked via C-terminal Arg to Lys side chains, letters 7-11 and 14-18 written reversed, not a linear chain
notes: also called Reverse Tetramer; tetrameric TKPPR linked to a different scaffold through the C-terminal amino acid
For the molecule B1, the IC50 was 8 µM.
